We go through 49 molecules from patent US20220153796A1.

One test addresses HLA-B*08 (human). Nature of the test: UV peptide exchange ELISA. On the technique in general: An ELISA detects its analyte on a solid surface through an enzyme-linked reagent.
For MAQFKEISL, the peptide exchange yield is > 75%.
On the same count and under the same terms, then LVKVKVLL, with > 75%.
Still for that read-out and setting: the same measure for VASPKHCVL: 50 to 75%; for EAAIRSVEL: > 75%; for FNKRKPLSL: 50 to 75%.
MPMQDIKM: the peptide exchange yield is > 75%.
The same measure, in the same setting: then ELKKLYCQI, with > 75%; and EIRIRVVQM, with > 75%; and EAMLRNKEL, with > 75%.
On the same count and under the same terms, the same measure for LPFPKFTV: > 75%; for HLLQKQTSI: 50 to 75%.
For VIKEKALTL, the peptide exchange yield is 50 to 75%.
On to ALKLRVAVL, for which the peptide exchange yield was > 75%.
As to YMHKLLVL, the peptide exchange yield was > 75%.
With ILKVKVGL, the peptide exchange yield was > 75%.
On the same count and under the same terms, the same measure for DAIQRKYSC: 50 to 75%; for RAQLKLVAL: > 75%; for ELKKKEYEEL: > 75%.
DIYQRALNL: the peptide exchange yield is > 75%.
Still for that read-out and setting: the same measure for ILLPRTVSL: > 75%; for AIISRLVAL: > 75%; for LPPKKFVL: > 75%.
On the same count and under the same terms, then MLKQKVEEL, with > 75%.

The target in a further test is HLA-B*44 (human). Nature of the test: UV peptide exchange ELISA.
The molecule DEVNFLVY yielded a peptide exchange yield of 10 to 20%.
Still for that read-out and setting: the same measure for SEIGKAVGF: > 75%; for YEDLSQKY: 20 to 50%.
Still for that read-out and setting: then AEDQLHHSF, with 50 to 75%; and SEMNVNMKY, with > 75%.
On to GELALKKKI, for which the peptide exchange yield lay within 20 to 50%.
Same read-out and setting: the same measure for AEEEIMKKI: 20 to 50%; for AEIQPQTQV: 50 to 75%; for GEVSGLTKDF: 20 to 50%.
On the same count and under the same terms, the same measure for AEVGFVRFF: > 75%.
On the same count and under the same terms, then TEFPIIKMY, with 20 to 50%; and AELDKLTSV, with 50 to 75%.
For GEVHPSEMI, the peptide exchange yield fell in the range of 50 to 75%.
With EENDQSTHKW, the peptide exchange yield lay in the range of 50 to 75%.
Same read-out and setting: then SEIEDSTKQVF, with 50 to 75%.
On the same count and under the same terms, then SEDDPILQI, with 50 to 75%.
The same measure, in the same setting: the same measure for RELQHEHSL: 50 to 75%; for TEREWADEW: 50 to 75%; for GEFPVRVQV: 20 to 50%.
MEMQKSPVF: the peptide exchange yield lay within 50 to 75%.
For the molecule AETPIQNVI, the peptide exchange yield lay within 50 to 75%.
The same measure, in the same setting: then QENSYQSRL, with 50 to 75%; and AENLFRAF, with 20 to 50%; and TEGIIMKDF, with 20 to 50%.
The same measure, in the same setting: then SEIEQEIGSL, with 50 to 75%.
Regarding EEIERFFKL, the peptide exchange yield lay within 50 to 75%.
